Measurements reported in article doi:10.1101/2025.10.28.684701.

T1: MBP-CFLAP1 (AKS1) (Arabidopsis thaliana, UniProt Q9C690 1-379)
T1 sequence: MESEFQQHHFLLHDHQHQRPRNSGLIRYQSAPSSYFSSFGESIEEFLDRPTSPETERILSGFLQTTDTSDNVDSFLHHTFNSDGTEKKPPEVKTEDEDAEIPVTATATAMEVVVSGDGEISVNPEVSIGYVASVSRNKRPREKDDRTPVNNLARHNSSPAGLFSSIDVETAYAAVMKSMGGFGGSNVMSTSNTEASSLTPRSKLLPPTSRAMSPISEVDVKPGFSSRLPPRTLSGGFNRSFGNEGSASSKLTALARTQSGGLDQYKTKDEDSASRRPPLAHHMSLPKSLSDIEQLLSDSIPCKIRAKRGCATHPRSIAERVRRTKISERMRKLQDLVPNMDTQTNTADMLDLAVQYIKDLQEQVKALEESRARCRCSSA

B1: pBDG1 P2 probe (dsDNA)
DNA 1: TGGCCACATGCCATCATATCACTTGTCCAT
DNA 2: ATGGACAAGTGATATGATGGCATGTGGCCA
B2: pCYP86A2 P2 probe (dsDNA)
DNA 1: GATATTGCAGTTGCAGCGTACACAAGTCAG
DNA 2: CTGACTTGTGTACGCTGCAACTGCAATATC
B3: pBDG1 P1 probe (dsDNA)
DNA 1: CGTCGTTGACCTCTGCATTACAATTGTGTC
DNA 2: GACACAATTGTAATGCAGAGGTCAACGACG
B4: pCYP86A4 P2 probe (dsDNA)
DNA 1: CCACTTTGGTTAACATTTGAGGAAT
DNA 2: ATTCCTCAAATGTTAACCAAAGTGG
B5: pCYP86A2 P3 probe (dsDNA)
DNA 1: GATCATTGGTTTACGATCACTTGCAAAGTC
DNA 2: GACTTTGCAAGTGATCGTAAACCAATGATC
B6: pCYP86A2 P1 probe (dsDNA)
DNA 1: CTACGTACAGTTGTGTTCCATTTGTTACAA
DNA 2: TTGTAACAAATGGAACACAACTGTACGTAG
B7: pCYP86A4 P1 probe (dsDNA)
DNA 1: TCGGAAAAGTACACTTGGGCTTATA
DNA 2: TATAAGCCCAAGTGTACTTTTCCGA

The binders below were run against T1, MBP-CFLAP1 (AKS1) (assay: EMSA).
B1: binds. B2: binds. B3: binds. B4: binds. B5: binds. B6: binds. B7: binds.
